The target of this experiment is F29 7-36 (Homo sapiens, UniProt P01275, Ile29 replaced by hexafluoroleucine, C-terminal amide). Nature of the experiment: competition binding with [125I]-Ex.

B1: GLP-1 receptor (protein)
chain: RPQGATVSLWETVQKWREYRRQCQRSLTEDPPPATDLFCNRTFDEYACWPDGEPGSFVNVSCPWYLPWASSVPQGHVYRFCTAEGLWLQKDNSSLPWRDLSECEESKRGERSSPEEQLLFLYIIYTVGYALSFSALVIASAILLGFRHLHCTRNYIHLNLFASFILRALSVFIKDAALKWMYSTAAQQHQWDGLLSYQDSLSCRLVFLLMQYCVAANYYWLLVEGVYLYTLLAFSVLSEQWIFRLYVSIGWGVPLLFVVPWGIVKYLYEDEGCWTRNSNMNYWLIIRLPILFAIGVNFLIFVRVICIVVSKLKANLMCKTDIKCRLAKSTLTLIPLLGTHEVIFAFVMDEHARGTLRFIKLFTELSFTSFQGLMVAILYCFVNNEVQLEFRKSWERWRLEHLHIQRDSSMKPLKCPTSSLSSGATAGSSMYTATCQASCS
On to B1, for which the IC50 worked out at 13.4 nM.

The values are drawn from article PMC2645917 (2008).
